Laboratory results from patent publication US20080027145A1, “Therapeutic Molecules and Methods for Generating and/or Selecting Same” (priority 2004, published 2008).

Columns and labels:
[1] = molecular target: T1, FLAG-tagged Mcl-1 (Mus musculus, UniProt P97287); assay: Co-immunoprecipitation in transfected 293T cells; type: binding; conditions: tagged full-length proteins
T1 construct: expressed in transfected cells; host or cells: HEK293T
Source text: (§1) Equivalent ^35S-labeled lysates harvested from 293T cells were immunoprecipitated with antibodies to the HA, FLAG (FL) or control (C) tags.
(§2) The maintenance, transfection and metabolic labeling of the human embryonic kidney (HEK) 293T cells with ^35S-methionine/cysteine (NEN) as well as co-immunoprecipitation have been described (Huang et al., Supra; Moriishi et al., Proc Natl Acad Sci USA 96:9683-9688, 1999; O'Conner et al., Supra). Briefly, equivalent TCA-precipitable lysates were immunoprecipiated using the mouse monoclonal antibodies to HA (HA.11; CRP), FLAG (M2; Sigma) and control Glu-Glu (CRP) tags. The proteins were resolved by SDS:PAGE, transferred onto nitrocellulose membranes and detected by fluorography (Amplify; Amersham Biosciences).
(§3) To verify the in vitro findings, interactions of selected pairs of the full-length N-terminally tagged proteins were investigated in mammalian cells by co-immunoprecipitation. […] The cells were metabolically labeled with ^35S-methionine/cysteine to permit semi-quantitative assessment of any interaction between co-associating radiolabeled proteins.
(§4) To verify the in vitro findings, selected pairs of the full-length N-terminally tagged proteins associated in mammalian cells were investigated by co-immunoprecipitation. […] The cells were metabolically labeled with ^35S-methionine/cysteine to permit semi-quantitative assessment of any interaction between the labeled proteins or interaction was gauged by the more sensitive western blotting.

[2] = tested on: mouse embryonic fibroblasts (MEFs); assay: Killing of MEFs after retroviral expression, viability 24 hours after infection; type: cell-based; conditions: retroviral expression, 24 hours after infection
Experimental: FIG. 7 is a graphical representation showing that BH3-only proteins that bind selective targets have weak killing activity. (A) The affinities of BH3-only peptides for pro-survival proteins (tabulated in FIG. 3A) were inversely plotted to facilitate comparison of the patterns of BH3 binding. […] Immortalized 3T9 MEFs were infected with retroviruses expressing only GFP (control), or one of the BH3-only proteins and GFP. The viability of the infected (GFP^+ve) cells was determined by PI exclusion 24 hours after infection. The histograms represent means±1SD of at least 3 experiments. […] The filter was probed with a rat monoclonal anti-FLAG antibody. *Degradation product of Mcl-1. […] Viability of MEFs infected with retroviruses encoding the indicated proteins (GFP^+ve) was analyzed 24 hours after infection. The histograms represent means±1SD of at least 3 experiments. (E) Long-term survival of MEFs infected with BH3 expressing retroviruses. One hundred retrovirally-infected cells were plated and the absolute number of GFP^+ve colonies formed after 6 days scored. […] The data represent the average number of GFP^+ve colonies formed±1SD from at least 3 experiments. To assess the biological relevance of the selective binding, retroviral delivery was used to compare the ability of different BH3-only proteins to kill wild-type mouse embryonic fibroblasts (MEFs). To monitor expression of the introduced gene, a vector (pMIG) in which its expression is coupled via an internal ribosomal entry site (IRES) to that of green fluorescent protein (GFP) was used (Van Parijs et al., Immunity 11:281-288, 1999). The cells were efficiently infected (>90%) and the introduced BH3-only proteins were comparably expressed. Viability of the infected (GFP^+ve) cells was scored 24 hours after infection (FIGS. 7A, 7B) and in long-term colony assays (FIG. 7E). […] Thus, the neutralization of Mcl-1 by Noxa should be complemented by co-expression of a BadBH3 to neutralize Bcl-2 and Bcl-xL in MEFs (FIG. 8A).

[3] = tested on: mouse embryonic fibroblasts (MEFs); assay: Long-term colony assay of retrovirally infected MEFs; type: cell-based; conditions: colonies after 6 days
Experimental: FIG. 7 is a graphical representation showing that BH3-only proteins that bind selective targets have weak killing activity. (A) The affinities of BH3-only peptides for pro-survival proteins (tabulated in FIG. 3A) were inversely plotted to facilitate comparison of the patterns of BH3 binding. […] Immortalized 3T9 MEFs were infected with retroviruses expressing only GFP (control), or one of the BH3-only proteins and GFP. The viability of the infected (GFP^+ve) cells was determined by PI exclusion 24 hours after infection. The histograms represent means±1SD of at least 3 experiments. […] The filter was probed with a rat monoclonal anti-FLAG antibody. *Degradation product of Mcl-1. […] Viability of MEFs infected with retroviruses encoding the indicated proteins (GFP^+ve) was analyzed 24 hours after infection. The histograms represent means±1SD of at least 3 experiments. (E) Long-term survival of MEFs infected with BH3 expressing retroviruses. One hundred retrovirally-infected cells were plated and the absolute number of GFP^+ve colonies formed after 6 days scored. […] The data represent the average number of GFP^+ve colonies formed±1SD from at least 3 experiments. […] Viability of the infected (GFP^+ve) cells was scored 24 hours after infection (FIGS. 7A, 7B) and in long-term colony assays (FIG. 7E).

[4] = molecular target: T2, Bcl-2 ΔC22 (Homo sapiens, UniProt P10415); assay: Bcl-2 ΔC22
T2 construct: Human Bcl-2 (Acc. no. NP_000624; residues 1-217); made in house
T2 sequence (P10415 1-217, stated change not applied): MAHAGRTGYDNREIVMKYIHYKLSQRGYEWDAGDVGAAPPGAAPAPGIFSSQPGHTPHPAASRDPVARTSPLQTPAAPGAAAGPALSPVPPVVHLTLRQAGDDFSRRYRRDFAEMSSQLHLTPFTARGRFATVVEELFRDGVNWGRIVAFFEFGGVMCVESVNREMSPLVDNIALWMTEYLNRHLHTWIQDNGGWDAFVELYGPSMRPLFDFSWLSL
Experimental: (§5) Table printed on a drawing sheet, FIGURE 2A
Head of the field: Bcl-2 ΔC22
The patent's description of the figure: FIG. 2 is a graphical representation showing pro-apoptotic BH3-only and pro-survival Bcl-2-like proteins have distinctive interactions. (A) Using competitive binding assays, the IC50 (nM) for the indicated interactions were determined. The results shown are from representative experiments; the variation observed in multiple experiments was less than two-fold (using different chips or protein batches). (B) Relative binding affinities of interactions (tabulated in A) were inversely plotted. The BH3 binding profiles of pro-survival proteins are shown. […] Color reproductions are available from the patentees on request.
(§6) First copying reader's note: The table itself prints no unit; IC50 (nM) is printed only on the axis of panel B of the same figure, which plots the same values.
Where the first naming reader finds the target: head: Bcl-2 ΔC22

[5] = molecular target: T3, Bcl-xL ΔC24 (Homo sapiens, UniProt Q07817); assay: Bcl-xL ΔC24
T3 construct: Human Bcl-xL (Acc. no. NP_612815; residues 1-209); GST (N, cleaved yes); made in house
T3 sequence (Q07817 1-209, stated change not applied): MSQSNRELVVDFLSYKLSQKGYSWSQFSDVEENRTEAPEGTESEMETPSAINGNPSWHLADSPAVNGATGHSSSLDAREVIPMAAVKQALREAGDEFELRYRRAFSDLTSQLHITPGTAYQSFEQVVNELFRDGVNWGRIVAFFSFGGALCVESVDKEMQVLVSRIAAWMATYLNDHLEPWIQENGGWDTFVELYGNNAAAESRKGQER
Experimental: as §5
Head of the field: Bcl-xL ΔC24
(§7) The patent's description of the figure: FIG. 2 is a graphical representation showing pro-apoptotic BH3-only and pro-survival Bcl-2-like proteins have distinctive interactions. (A) Using competitive binding assays, the IC50 (nM) for the indicated interactions were determined. The results shown are from representative experiments; the variation observed in multiple experiments was less than two-fold (using different chips or protein batches). (B) Relative binding affinities of interactions (tabulated in A) were inversely plotted. The BH3 binding profiles of pro-survival proteins are shown. In (C), the sequences of human Bcl-2 (residues 93-202), human Bcl-xL (86-195), human Bcl-w (42-151), mouse Mcl-1 (190-300) and mouse A1 (33-148) that form their BH3 binding grooves (α-helices 2 to 8; Hinds et al., EMBO J 22:1497-1507, 2003) were compared and presented as a phylogenetic tree. Color reproductions are available from the patentees on request.
as §6
Where the first naming reader finds the target: head: Bcl-xL ΔC24

[6] = molecular target: T4, Bcl-w ΔC29 (Homo sapiens, UniProt Q92843, A128E/C29S); assay: Bcl-w ΔC29
T4 construct: human Bcl-w (Acc. no. NP_004041; residues 1-164; C29S A128E); made in house
T4 sequence (Q92843 1-164 C29S/A128E): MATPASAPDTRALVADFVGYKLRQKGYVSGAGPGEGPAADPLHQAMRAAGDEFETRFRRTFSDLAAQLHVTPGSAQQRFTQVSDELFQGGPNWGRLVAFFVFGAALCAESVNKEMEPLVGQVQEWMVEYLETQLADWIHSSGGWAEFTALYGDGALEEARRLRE
Experimental: as §5, §7, §6

[7] = molecular target: T5, A1 ΔC20 (Mus musculus, UniProt Q07440); assay: A1 ΔC20
T5 construct: mouse A1 (Acc. no. NP_033872; residues 1-152); GST (N, cleaved yes); made in house
T5 sequence (Q07440 1-152, stated change not applied): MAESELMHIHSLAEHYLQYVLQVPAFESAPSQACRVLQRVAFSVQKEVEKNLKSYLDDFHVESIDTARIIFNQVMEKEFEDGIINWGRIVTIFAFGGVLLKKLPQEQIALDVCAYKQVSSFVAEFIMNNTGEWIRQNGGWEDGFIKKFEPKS
Experimental: as §5
Head of the field: A1 ΔC20
as §7, §6
Where the first naming reader finds the target: head: A1 ΔC20

[8] = molecular target: T6, Mcl-1 ΔN151 ΔC23 (Mus musculus, UniProt P97287); assay: Mcl-1 ΔN151 ΔC23
T6 construct: mouse Mcl-1 (Acc. no. NP_031588; residues 152-308); GST (N, cleaved yes); made in house
T6 sequence (P97287 152-308, stated change not applied): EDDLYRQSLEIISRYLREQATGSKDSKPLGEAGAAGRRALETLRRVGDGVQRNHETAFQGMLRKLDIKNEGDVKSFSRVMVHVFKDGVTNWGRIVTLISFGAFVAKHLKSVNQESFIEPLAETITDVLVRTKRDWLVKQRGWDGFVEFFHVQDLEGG
Experimental: as §5
Head of the field: Mcl-1 ΔN151 ΔC23
as §7, §6
Where the first naming reader finds the target: head: Mcl-1 ΔN151 ΔC23

[9] = molecular target: T7, FLAG-tagged Bcl-xL (Homo sapiens, UniProt Q07817); assay: Co-immunoprecipitation in transfected 293T cells; type: binding; conditions: tagged full-length proteins
T7 construct: expressed in transfected cells; host or cells: HEK293T
T7 sequence (Q07817 whole entry): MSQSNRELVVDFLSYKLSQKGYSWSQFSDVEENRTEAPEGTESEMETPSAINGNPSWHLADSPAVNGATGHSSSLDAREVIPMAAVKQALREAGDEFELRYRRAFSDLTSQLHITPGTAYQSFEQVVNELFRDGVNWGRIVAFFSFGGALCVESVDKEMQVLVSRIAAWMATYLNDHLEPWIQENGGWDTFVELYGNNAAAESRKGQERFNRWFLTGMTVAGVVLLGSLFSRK
Source text: as §1, §2, §3, §4

T1 sequence (P97287 whole entry): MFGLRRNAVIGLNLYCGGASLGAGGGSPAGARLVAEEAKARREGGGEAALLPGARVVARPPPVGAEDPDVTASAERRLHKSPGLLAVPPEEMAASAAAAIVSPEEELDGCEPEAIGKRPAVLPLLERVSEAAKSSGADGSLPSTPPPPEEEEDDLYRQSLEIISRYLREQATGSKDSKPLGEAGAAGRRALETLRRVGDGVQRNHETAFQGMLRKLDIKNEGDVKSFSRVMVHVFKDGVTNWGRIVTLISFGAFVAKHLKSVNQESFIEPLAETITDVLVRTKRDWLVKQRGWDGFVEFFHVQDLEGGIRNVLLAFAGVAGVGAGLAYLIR

Row | Substance | interaction with Mcl-1 by co-immunoprecipitation [1] | killing of MEFs [2] | IC50 [7] | other results
1 | Puma: full-length human BH3-only protein Puma expressed in cells [listing 1 of 2 here] | well | soon died | – | long-term survival, GFP+ve colonies [3]: failed to generate colonies
2 | Hrk: BH3-only protein Hrk expressed from retrovirus in MEFs | – | – | 46 nM | IC50 [4]: 320 nM; IC50 [5]: 3.7 nM; IC50 [6]: 49 nM
3 | Puma: full-length human BH3-only protein Puma expressed in cells [listing 2 of 2 here] | – | – | 5.7 nM | IC50 [8]: 5 nM
4 | Noxa m3: Noxa BH3 with K35E and F32I expressed in cells (Bims NoxaBH3 m3 in FIG. 9D) (PAELEVECATQLRRIGDELNFRQKLL) | binds | more potent killer than wild-type Noxa | – | interaction with Bcl-xL by co-immunoprecipitation [9]: bound
